Laboratory results from PMC11272584 (Nature Metabolism, 2024).
Substitutions are numbered along the chain they refer to.

Columns and labels:
[1] = target: T1, GIPR E291K (human) (UniProt P48546)
T1 sequence: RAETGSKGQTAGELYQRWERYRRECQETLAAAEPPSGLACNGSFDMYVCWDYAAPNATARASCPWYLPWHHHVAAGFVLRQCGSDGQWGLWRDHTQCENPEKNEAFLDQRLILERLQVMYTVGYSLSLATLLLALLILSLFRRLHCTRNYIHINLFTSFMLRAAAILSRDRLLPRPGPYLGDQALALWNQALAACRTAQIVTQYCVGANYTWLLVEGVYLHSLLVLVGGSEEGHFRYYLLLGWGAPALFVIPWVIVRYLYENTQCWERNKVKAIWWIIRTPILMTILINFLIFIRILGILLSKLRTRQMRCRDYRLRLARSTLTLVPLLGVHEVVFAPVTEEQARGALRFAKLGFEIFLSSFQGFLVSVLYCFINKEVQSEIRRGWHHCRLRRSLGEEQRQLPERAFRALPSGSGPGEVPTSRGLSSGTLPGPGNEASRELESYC

[2] = target: T2, GIPR E418K (human) (UniProt P48546)
T2 sequence: T1 sequence with K270E, E397K

[3] = target: T3, GIPR E461* (human) (UniProt P48546)
T3 sequence: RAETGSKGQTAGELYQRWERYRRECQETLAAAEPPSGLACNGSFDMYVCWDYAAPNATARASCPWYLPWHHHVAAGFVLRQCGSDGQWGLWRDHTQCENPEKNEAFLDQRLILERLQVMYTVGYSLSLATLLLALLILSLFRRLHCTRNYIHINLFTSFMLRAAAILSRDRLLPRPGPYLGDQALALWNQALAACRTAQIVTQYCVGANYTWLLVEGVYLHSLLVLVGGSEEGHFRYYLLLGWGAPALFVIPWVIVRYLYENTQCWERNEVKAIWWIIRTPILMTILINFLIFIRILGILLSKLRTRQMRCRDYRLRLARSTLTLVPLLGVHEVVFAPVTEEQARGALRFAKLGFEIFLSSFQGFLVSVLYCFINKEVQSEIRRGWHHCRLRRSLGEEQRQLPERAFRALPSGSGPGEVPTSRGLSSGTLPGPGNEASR

[4] = target: T4, GIPR G449A (human) (UniProt P48546)
T4 sequence: T1 sequence with K270E, G428A

[5] = target: T5, GIPR M67R (human) (UniProt P48546)
T5 sequence: T1 sequence with M46R, K270E

[6] = target: T6, GIPR R164Q (human) (UniProt P48546)
T6 sequence: T1 sequence with R143Q, K270E

- β-arrestin 2 recruitment (BRET) on stimulation with GIP(1-42): logEC50 (Arrestin) (log M (inferred)) [1]: -8.48
- β-arrestin 2 recruitment (BRET) on stimulation with GIP(1-42): logEC50 (Arrestin) (log M (inferred)) [2]: -9.19
- β-arrestin 2 recruitment (BRET) on stimulation with GIP(1-42): logEC50 (Arrestin) (log M (inferred)) [3]: -9.17
- β-arrestin 2 recruitment (BRET) on stimulation with GIP(1-42): logEC50 (Arrestin) (log M (inferred)) [4]: -9.24
- β-arrestin 2 recruitment (BRET) on stimulation with GIP(1-42): logEC50 (Arrestin) (log M (inferred)) [5]: -8.16
- β-arrestin 2 recruitment (BRET) on stimulation with GIP(1-42): logEC50 (Arrestin) (log M (inferred)) [6]: -8.92
Substance: β-arrestin 2 (Rluc8-Arrestin-3-Sp1) (from UniProt P32121 1-409) (natural protein)
